The target in assay [1] is biotinylated clamp loader complex ^bioχψτ3δδ’ (Escherichia coli K12) (UniProt P28905). The assay can be described thus: SPR. A general note: Surface plasmon resonance follows binding to a sensor surface in real time, without labels.
The next assay addresses DnaB (Escherichia coli) (UniProt P0ACB0). The following applies: cited from earlier work.
Assay [2] concerns the target DnaB^F102C (Escherichia coli K12) (UniProt P0ACB0).
Assay [3] shares this target. The assay can be described thus: cross-linking.
The target of assay [4] is DnaB helicase, wild type (DnaB^wt) (Escherichia coli K12) (UniProt P0ACB0).

The term Kd denotes the equilibrium constant for the complex coming apart. Turning to “DnaB^wt•DnaGC complex (from UniProt P0ACB0 1-471)”, the equilibrium dissociation constant (Kd) in assay [1] was found to be 2.6 nM.

For the substance DnaG (from UniProt P0ABS5), the Kd with DnaB (Escherichia coli) is 2800 nM.

“DnaGC, C-terminal helicase-binding domain of DnaG primase (domain or fragment)” gave a fold less efficient interaction than with wild-type DnaB in assay [2] of 200 fold.

As for DnaGC^R568C/C492L (domain or fragment), the disulfide crosslinking efficiency in assay [3] was found to be 100%. In assay [4], this substance came in with a fold weaker interaction than wild-type DnaGC of 30 fold.

The record behind these values is article PMC7335327.
